Data on 25 molecules can be found in patent publication US20120135912A1 (PERSEID THERAPEUTICS, published 2012).

B1: 2D-VCAM-1 variant Clone 151 (ligand)
chain: FKIETTPESRYLAQIGDSVSLTCSTTGCESPSFYWRPQLDAPLNGKVTNEGTTSTLTMNPVSFGNEHSYLCTAACESRRLEKGIQVEIYSFPKDPEIHLSGPLEAGKPITVKCSVADVYPFDRLEIDLLKGDHLMKSQEFLEDADRKSLETKSLEVTFTPVIEDIGKVLVCRAKLHIDEMDSVPTVRQAVKELQVYISP
notes: not shown: His tag
B2: R1R7 (ligand)
2D-VCAM-1 variant polypeptide: MFKIETTPESRYLAQIGDSVSLTCSTTGCESPFFFWRPLLDSPLNGKVTNEGTTSTLTMNPVSFGNEHSYLCTARCESRKLEKGIQVEIYSFPKDPEIHLSGPLEAGKPITVKCSVADVYPFDRLEIDLLKGDHLMKSQEFLEDADRKSLETKSLEVTFTPVIEDIGKVLVCRAKLHIDEMDSVPTVRQAVKELQVYISP
notes: also called 146R1R7
B3: R1R6R7 (ligand)
2D-VCAM-1 variant polypeptide: B2 2D-VCAM-1 variant polypeptide with R75T
notes: also called 146R1R6R7
B4: R1R3 (ligand)
2D-VCAM-1 variant polypeptide: B2 2D-VCAM-1 variant polypeptide with P38T, K80S
notes: also called 146R1R3
B5: R6R7 (ligand)
2D-VCAM-1 variant polypeptide: B2 2D-VCAM-1 variant polypeptide with F33L, R75T
notes: also called 146R6R7
B6: R5R7 (ligand)
2D-VCAM-1 variant polypeptide: B2 2D-VCAM-1 variant polypeptide with F33L, L40I
notes: also called 146R5R7
B7: R3R7 (ligand)
2D-VCAM-1 variant polypeptide: B2 2D-VCAM-1 variant polypeptide with F33L, P38T
notes: also called 146R3R7
B8: R1R5 (ligand)
2D-VCAM-1 variant polypeptide: B2 2D-VCAM-1 variant polypeptide with L40I, K80S
notes: also called 146R1R5
B9: human 2D-VCAM-1 (ligand)
chain: B1 chain with S32F, Y34S, P37T, L39I, A41S, A74T, R79K
notes: also called wild type 2D-VCAM-1; wt-2D-VCAM-1; not shown: His tag
B10: 146R6 (ligand)
chain: FKIETTPESRYLAQIGDSVSLTCSTTGCESPLFFWRPLLDSPLNGKVTNEGTTSTLTMNPVSFGNEHSYLCTATCESRSLEKGIQVEIYSFPKDPEIHLSGPLEAGKPITVKCSVADVYPFDRLEIDLLKGDHLMKSQEFLEDADRKSLETKSLEVTFTPVIEDIGKVLVCRAKLHIDEMDSVPTVRQAVKELQVYISPGGGSDYKDDDDKGGGSDYKDDDDKGGGSDYKDDDDKGS
notes: Crude CHO-S supernatant, 3x spacer-FLAG tagged
B11: 146R11 (ligand)
chain: B10 chain with L38Q, S79K
notes: as for B10
B12: 146R21 (ligand)
chain: B10 chain with L32F, P37T, T74R
notes: Crude CHO-S supernatant, 3x spacer-FLAG tagged; also called I46R21
B13: 146R23 (ligand)
chain: B10 chain with L32F, P37T, T74R, S79K
notes: as for B10
B14: 146R19 (ligand)
chain: B10 chain with L32F, L38Q, L39I, T74R, S79K
notes: as for B10
B15: 146R16 (ligand)
chain: B10 chain with L32F, L39I, T74R
notes: Crude CHO-S supernatant, 3x spacer-FLAG tagged; The cell prints N: 131
B16: 146R8 (ligand)
chain: B10 chain with S79K
notes: as for B10
B17: 146R9 (ligand)
chain: B10 chain with L32F, L38Q, T74R
notes: as for B10
B18: 146R18 (ligand)
chain: B10 chain with L32F, L39I, S79K
notes: as for B10
B19: 146R14 (ligand)
chain: B10 chain with L39I, T74R, S79K
notes: as for B10
B20: 146R12 (ligand)
chain: B10 chain with L32F, F34S, S79K
notes: as for B10
B21: 146R22 (ligand)
chain: B10 chain with P37T, T74R, S79K
notes: as for B10
B22: 146R20 (ligand)
chain: B10 chain with L32F, L38Q, L39I, T74R
notes: as for B10
B23: 146R15 (ligand)
chain: B10 chain with L32F, L38Q, T74R, S79K
notes: as for B10
B24: 146R10 (ligand)
chain: B10 chain with L32F, S79K
notes: as for B10
B25: 146R17 (ligand)
chain: B10 chain with L32F, L39I, T74R, S79K
notes: as for B10

Changes are numbered by the printed parent chain.

The target in one test is T1, human VLA4-Fc (alpha4-Fc/beta1-Fc heterodimer) (human).
T1 construct: Soluble heterodimer from CHO cells, Protein A purified; also called VLA-Fc
T1 sequence (chain, as listed by the source limits assumed, form in doubt, chain 1 of 2): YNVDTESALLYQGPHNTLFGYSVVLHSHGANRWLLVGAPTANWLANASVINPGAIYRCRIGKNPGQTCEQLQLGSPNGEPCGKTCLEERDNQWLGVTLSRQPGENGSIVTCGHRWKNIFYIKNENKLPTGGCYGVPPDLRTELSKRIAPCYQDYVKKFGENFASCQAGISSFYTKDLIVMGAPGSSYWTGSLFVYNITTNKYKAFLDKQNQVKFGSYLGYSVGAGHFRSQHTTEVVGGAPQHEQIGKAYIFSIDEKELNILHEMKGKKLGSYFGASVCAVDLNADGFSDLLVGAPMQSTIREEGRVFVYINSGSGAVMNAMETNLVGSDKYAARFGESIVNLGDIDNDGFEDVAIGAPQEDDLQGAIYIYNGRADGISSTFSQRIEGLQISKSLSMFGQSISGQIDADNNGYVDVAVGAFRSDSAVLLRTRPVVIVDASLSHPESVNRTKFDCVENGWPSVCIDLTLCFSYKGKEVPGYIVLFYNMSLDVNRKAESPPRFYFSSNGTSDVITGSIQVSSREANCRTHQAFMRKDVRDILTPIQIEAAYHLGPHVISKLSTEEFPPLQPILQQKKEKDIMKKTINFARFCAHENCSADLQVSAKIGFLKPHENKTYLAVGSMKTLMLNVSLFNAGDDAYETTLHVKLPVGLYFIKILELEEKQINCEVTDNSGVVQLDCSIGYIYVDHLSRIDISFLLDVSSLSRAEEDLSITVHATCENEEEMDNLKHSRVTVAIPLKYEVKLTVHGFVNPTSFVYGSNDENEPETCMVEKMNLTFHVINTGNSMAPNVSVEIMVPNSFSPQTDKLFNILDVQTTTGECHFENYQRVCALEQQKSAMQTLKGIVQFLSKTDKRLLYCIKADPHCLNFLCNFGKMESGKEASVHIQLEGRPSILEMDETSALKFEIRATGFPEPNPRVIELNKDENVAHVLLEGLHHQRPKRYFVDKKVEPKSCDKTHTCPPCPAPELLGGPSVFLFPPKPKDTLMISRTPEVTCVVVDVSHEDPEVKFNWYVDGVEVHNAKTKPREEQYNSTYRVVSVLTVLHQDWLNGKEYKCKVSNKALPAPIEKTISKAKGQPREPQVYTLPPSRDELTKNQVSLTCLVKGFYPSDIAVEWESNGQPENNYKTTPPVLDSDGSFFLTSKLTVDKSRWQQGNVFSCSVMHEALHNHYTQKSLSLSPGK
T1 sequence (chain, as listed by the source limits assumed, form in doubt, chain 2 of 2): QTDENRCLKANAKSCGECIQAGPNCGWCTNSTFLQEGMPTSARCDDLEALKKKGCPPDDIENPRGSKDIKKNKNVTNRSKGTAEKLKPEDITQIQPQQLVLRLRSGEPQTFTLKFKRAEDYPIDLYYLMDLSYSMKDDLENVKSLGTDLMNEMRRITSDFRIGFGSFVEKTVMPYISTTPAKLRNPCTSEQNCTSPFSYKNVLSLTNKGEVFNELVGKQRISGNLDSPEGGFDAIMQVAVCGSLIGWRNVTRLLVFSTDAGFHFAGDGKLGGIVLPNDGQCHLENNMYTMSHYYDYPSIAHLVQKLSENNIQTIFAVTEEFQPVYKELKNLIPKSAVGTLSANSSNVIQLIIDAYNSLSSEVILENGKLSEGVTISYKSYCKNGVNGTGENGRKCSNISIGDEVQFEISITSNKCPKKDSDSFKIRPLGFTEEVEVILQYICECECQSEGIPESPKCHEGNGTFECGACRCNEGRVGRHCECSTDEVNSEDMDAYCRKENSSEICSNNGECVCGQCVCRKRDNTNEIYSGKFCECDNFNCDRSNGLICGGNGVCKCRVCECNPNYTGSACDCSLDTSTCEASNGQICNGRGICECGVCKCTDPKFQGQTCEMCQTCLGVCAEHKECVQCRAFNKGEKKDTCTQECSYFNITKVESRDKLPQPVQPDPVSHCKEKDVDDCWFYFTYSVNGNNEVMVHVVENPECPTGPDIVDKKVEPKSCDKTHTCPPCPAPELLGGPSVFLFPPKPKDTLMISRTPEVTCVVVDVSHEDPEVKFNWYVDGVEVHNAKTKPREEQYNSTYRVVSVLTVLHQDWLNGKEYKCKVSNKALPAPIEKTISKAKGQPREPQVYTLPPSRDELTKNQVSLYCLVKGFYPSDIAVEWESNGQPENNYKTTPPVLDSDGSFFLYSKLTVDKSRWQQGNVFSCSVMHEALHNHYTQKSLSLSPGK
The test is described as follows: ELISA, VLA4-Fc coated, 1 mM MnCl2; from EC50 values. The protocol: The relative binding affinities of various 2D-VCAM-1 variants to immobilized VLA4-Fc (α4-β1-Fc) heterodimer, relative to a control protein (e.g., Q38L-2D-VCAM-1 or to human 2D-VCAM-1), were deter using a solid-phase ELISA assay. MAXISORP™ ELISA plates (NUNC) were coated overnight at 4° C. with 50 ul VLA4-Fc heterodimer, 2 ug/ml in TBS-M (TBS (25 mM Tris-HCl pH 7.5, 150 mM NaCl) with 1 mM MnCl2), washed with TBS-T (TBS with 0.05% TWEEN-20), blocked with 200 ul 3% milk in TBS-M for 1 h at room temperature, and washed again with TBS-T. A four-fold dilution series of the purified 2D-VCAM variants to be assayed was made in COSTAR U-bottom plates in TBS-TMC (TBS with 0.05% Tween-20, 1 mM MnCl2, and 1% casein; Sigma) with a starting concentration of 8.2 uM (200 ug/ml). The dilution series was transferred into the ELISA plate which was incubated at room temperature for 2 h and subsequently washed with TBS-T. Bound 2D-VCAM protein was detected by incubation with 0.5 ug/ml of biotinylated anti-human VCAM antibody (R&D Systems, Catalog No. BAF809) in TBS-TMC for 1 h at room temperature followed by a TBS-MT (TBS plus 1 mM MnCl2 and 0.02% TWEEN-20) wash and subsequent incubation with 1:2000 dilution of streptavidin-HRP (BD Biosciences, Catalog No. 554066) in TBS-TMC for 30 min at room temperature. […] Typical development times ranged from […] and development was stopped by addition of 50 ul 2M H₂SO₄ (EM, Catalog No. SX1244-75). […] Fold-improvement in binding was calculated relative to a control protein (e.g., Q38L-2D-VCAM-1 or human 2D-VCAM-1) assayed on the same plate.
In general terms: ELISA stands for enzyme-linked immunosorbent assay.
Consider B1, for which the “fold-improvement in binding relative to Q38L-2D-VCAM-1” value was determined as 2 fold and the “fold-improvement in binding relative to human 2D-VCAM-1” value was found to be 16 fold.

For the next test, the target named is T2, human LPAM-1-Fc (alpha4-Fc/beta7-Fc heterodimer) (human).
T2 construct: Soluble heterodimer from CHO cells, Protein A purified
T2 sequence (chain, as listed by the source limits assumed, chain 1 of 2): as the sequence (chain, as listed by the source limits assumed, form in doubt, chain 1 of 2) above
T2 sequence (chain, as listed by the source limits assumed, chain 2 of 2): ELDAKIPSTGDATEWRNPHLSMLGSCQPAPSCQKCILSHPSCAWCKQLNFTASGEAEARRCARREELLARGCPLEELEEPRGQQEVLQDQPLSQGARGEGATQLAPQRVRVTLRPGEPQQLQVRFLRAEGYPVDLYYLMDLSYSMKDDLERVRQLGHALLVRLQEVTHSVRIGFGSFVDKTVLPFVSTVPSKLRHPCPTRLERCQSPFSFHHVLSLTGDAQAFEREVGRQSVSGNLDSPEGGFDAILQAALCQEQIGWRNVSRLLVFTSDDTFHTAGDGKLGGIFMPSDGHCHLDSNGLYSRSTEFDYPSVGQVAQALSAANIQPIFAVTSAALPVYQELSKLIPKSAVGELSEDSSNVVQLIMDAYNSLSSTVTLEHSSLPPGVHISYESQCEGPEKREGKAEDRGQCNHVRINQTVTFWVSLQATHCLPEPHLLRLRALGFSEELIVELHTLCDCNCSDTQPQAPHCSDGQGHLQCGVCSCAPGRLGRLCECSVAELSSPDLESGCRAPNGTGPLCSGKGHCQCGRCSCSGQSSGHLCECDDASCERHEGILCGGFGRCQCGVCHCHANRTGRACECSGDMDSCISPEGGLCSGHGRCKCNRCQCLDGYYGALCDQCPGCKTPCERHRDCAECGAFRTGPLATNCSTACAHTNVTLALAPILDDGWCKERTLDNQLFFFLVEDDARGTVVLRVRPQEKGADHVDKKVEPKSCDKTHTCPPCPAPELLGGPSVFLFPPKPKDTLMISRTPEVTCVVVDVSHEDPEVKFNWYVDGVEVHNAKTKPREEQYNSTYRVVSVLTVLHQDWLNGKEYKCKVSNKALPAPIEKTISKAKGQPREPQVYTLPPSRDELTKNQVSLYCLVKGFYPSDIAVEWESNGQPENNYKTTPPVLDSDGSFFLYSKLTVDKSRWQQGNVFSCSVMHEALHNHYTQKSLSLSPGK
The test is described as follows: SPR (BIACORE) as in Example 12, polypeptide purified from E. coli as analyte on captured LPAM-1-Fc; KD drawn as bars (Example 20). On the technique in general: Surface plasmon resonance follows binding to a sensor surface in real time, without labels.
Consider B2, for which the binding result is on record as “binds”.
As for B3, the binding result was “binds”.
Still for that read-out and setting: next, B4: “binds”.
The same measure, in the same setting: next, B5: “binds”; B6: “binds”.
On the same count and under the same terms, next, B7: “binds”; B8: “binds”.

Another test has as its target T1, human VLA4-Fc (alpha4-Fc/beta1-Fc …). The test is described as follows: SPR (BIACORE), VLA4-Fc captured by anti-human IgG, 1 mM MnCl2, 1:1 Langmuir. The method, then: (§1) The kinetic 2D-VCAM-1 assay measures binding kinetics of a dimeric ligand (e.g., VLA-Fc fusion protein or LPAM-1-Fc fusion protein) coated to sensor chips and monomeric analyte (e.g., 2D-VCAM-1 variant polypeptides) in the mobile phase. Goat anti-human IgG antibody (Jackson ImmunoResearch, Catalog No. 105-005-098) was immobilized on CM-5 sensor chips (GE Healthcare, Catalog No. BR-1000-14) according to the manufacturer's protocol. Antibody was diluted to 30 μg/ml in immobilization buffer (10 mM sodium acetate, pH 5.0 (GE Healthcare, Catalog No. BR-1003-51)). […] Un-reacted sites were quenched with 35 μl of 1 M ethanolamine-HCl pH 8.5 (GE Healthcare, Catalog No. BR-1000-50). This procedure typically yielded 15,000 response units (RU) of coupled antibody. VLA4-Fc or LPAM-1-Fc, prepared as described in Examples 3 and 4, respectively, were bound to antibody-coated sensor chips by injection of 20 μl of ligand solution (20 μg/ml protein in HBS-P-Mn buffer at a flow rate of 10 μl/min). Ligand capture levels were typically 200-300 RU. 2D-VCAM-1 variant polypeptides were diluted in HBS-P-Mn and flowed over ligand-coated sensor chips for 2 min at 30 μl/min, followed by 5 min incubation with in HBS-P-Mn containing no protein at the same flow rate. For 2D-VCAM-1 variant polypeptides having very slow dissociation rates from VLA4-Fc or LPAM-1-Fc, kinetic assays were also conducted using longer dissociation times (e.g., 20 min). Rmax signal levels for 2D-VCAM-1 variant polypeptides ranged from approximately 5-25 RU. Regeneration between cycles was performed by 200 sec incubation with 10 mM glycine buffer (pH 1.7) at 50 μl/min. New chips were subjected to 4-5 cycles of capture/binding/regeneration prior to use in actual experiments. Data from a reference cell containing goat anti-human IgG capture antibody alone was subtracted from data obtained from flow cells containing captured VLA4-Fc or LPAM-1-Fc. Typically, 8 dilutions of 2D-VCAM-1 variant polypeptides ranging from 150 nM to 0.069 nM were analyzed against a blank reference (HBS-P-Mn buffer alone).
What is called Kd is the concentration at which binding is half-saturated. Consider B9, for which the affinity, expressed as Kd, was 15.2 nM and the “binding affinity for VLA4-Fc relative to human 2D-VCAM-1” value turned out to be 1 fold.

A further test has the same target. The test is described as follows: SPR (BIACORE), crude CHO-S supernatant on VLA4-Fc.
For the molecule B10, the “fold weaker binding relative to 146R0 (KD(variant)/KD(146R0))” value (from here on “fold weaker binding relative to 146R0”) was 1.8 fold.
The same measure, in the same setting: next, B11: 25.9 fold; B12: 1 fold; B13: 6.1 fold.
As to B14, the “fold weaker binding relative to 146R0” value stood at 40 fold.
In the case of B15, the “fold weaker binding relative to 146R0” value stood at 1.1 fold.
B16: the “fold weaker binding relative to 146R0” value was 1.7 fold.
Still for that read-out and setting: next, B17: 2 fold; B18: 6.3 fold; B19: 1.5 fold.
As for B20, the “fold weaker binding relative to 146R0” value amounted to 21.7 fold.
With B21, the “fold weaker binding relative to 146R0” value was 1.6 fold.
Take B22: the “fold weaker binding relative to 146R0” value was determined as 9.3 fold.
For B23, the “fold weaker binding relative to 146R0” value was determined as 5.3 fold.
As to B24, the “fold weaker binding relative to 146R0” value was found to be 2.7 fold.
For the molecule B25, the “fold weaker binding relative to 146R0” value was found to be 2.8 fold.

The next test addresses T2, human LPAM-1-Fc (alpha4-Fc/beta7-Fc …). The test is described as follows: SPR (BIACORE), LPAM-1-Fc captured by anti-human IgG, 1 mM MnCl2, 1:1 Langmuir. The protocol: as §1
For B9, the dissociation constant Kd was found to be 248 nM and the “binding affinity for LPAM-1-Fc relative to human 2D-VCAM-1” value is 1 fold.
